Experimental findings from patent US7704695B2, “Screening of compounds for BGT1 transporter activity” (XenoPort, Inc., priority 2005, dated 2010) are described below.

The term Km denotes the substrate concentration at which the rate is half of its maximum.

Substrate in this data set: NCCCC(=O)O
Briefly: hBGT1 direct uptake assay (LC-MS-MS). To be noted: other: HEK-TREx-hBGT1 cells induced to express hBGT1. The format is cell-based, human.

Protocol: A modified direct uptake assay was developed to determine the ability of test compounds to be transported into HEK-TREx cells induced to over-express hBGT1. Four concentrations (bracketing the affinity as measured by competition assays) per compound were routinely tested. Non-specific uptake was determined by measuring the uptake into cells not induced to express the transporter (“no tet”).
Typically, four concentrations bracketing the IC50 were tested. The highest test concentration for each compound was made in an Eppendorf tube and diluted into HBSS. The samples were robustly vortexed and centrifuged for 10 minutes at 13,200 rpm to spin down any precipitate. […] Three additional 2-fold dilutions were made in the subsequent rows (B-D or F-G) in HBSS.
An internal standard of 50 μM propranolol in 50:50 ethanol:water was also prepared. To prepare standard curves, several concentrations of the test compounds were diluted into HEK cell extract (prepared from tet-treated, mock-incubated, and extracted cells as described below) with a final internal standard concentration of 5 μM. Standards of 10, 5, 1, 0.5, 0.1, 0.05, 0.01, and 0.005 μM were routinely run for each test compound. […]

B1: hBGT1 (Homo sapiens) (protein)
chain: MDGKVAVQECGPPAVSWVPEEGEKLDQEDEDQVKDRGQWTNKMEFVLSVAGEIIGLGNVWRFPYLCYKNGGGAFFIPYFIFFFVCGIPVFFLEVALGQYTSQGSVTAWRKICPLFQGIGLASVVIESYLNVYYIIILAWALFYLFSSFTSELPWTTCNNFWNTEHCTDFLNHSGAGTVTPFENFTSPVMEFWERRVLGITSGIHDLGSLRWELALCLLLAWVICYFCIWKGVKSTGKVVYFTATFPYLMLVILLIRGVTLPGAYQGIIYYLKPDLFRLKDPQVWMDAGTQIFFSFAICQGCLTALGSYNKYHNNCYKDCIALCFLNSATSFVAGFVVFSILGFMSQEQGVPISEVAESGPGLAFIAFPKAVTMMPLSQLWSCLFFIMLIFLGLDSQFVCVECLVTASIDMFPRQLRKSGRRELLILTIAVMCYLIGLFLVTEGGMYIFQLFDYYASSGICLLFLSLFEVVCISWVYGADRFYDNIEDMIGYRPWPLVKISWLFLTPGLCLATFLFSLSKYTPLKYNNVYVYPPWGYSIGWFLALSSMVCVPLFVVITLLKTRGPFRKRLRQLITPDSSLPQPKQHPCLDGSAGRNFGPSPTREGLIAGEKETHL
notes: expressed in transfected cells; host or cells: HEK-TREx cells (HEK-TREx-BGT1 inducible line), induced with tetracycline/doxycycline and butyrate
Turning to B1, the Michaelis-Menten constant (Km) is 27 µM.
